Source: PMC7387707, “An (R)-Selective Transaminase From Thermomyces stellatus: Stabilizing the Tetrameric Form” (Frontiers in Bioengineering and Biotechnology, 2020)

Legend:
TsRTA [1] = target: T1, TsRTA (Microascus stellatus, UniProt Z9EHZ8S8K6); assay: X-ray structure, […] Å; assay type: binding; details: covalent (imine with K178); active site
T1 construct: codon-optimised synthetic gene in pCH93b (pET22b(+)-derived, TEV site added), E. coli BL21 STAR (DE3), Ni-IMAC, C-terminal His-tag; structure residues 1-319 seen, 320-334 plus tag disordered
T1 sequence (Z9EHZ8S8K6 10-343): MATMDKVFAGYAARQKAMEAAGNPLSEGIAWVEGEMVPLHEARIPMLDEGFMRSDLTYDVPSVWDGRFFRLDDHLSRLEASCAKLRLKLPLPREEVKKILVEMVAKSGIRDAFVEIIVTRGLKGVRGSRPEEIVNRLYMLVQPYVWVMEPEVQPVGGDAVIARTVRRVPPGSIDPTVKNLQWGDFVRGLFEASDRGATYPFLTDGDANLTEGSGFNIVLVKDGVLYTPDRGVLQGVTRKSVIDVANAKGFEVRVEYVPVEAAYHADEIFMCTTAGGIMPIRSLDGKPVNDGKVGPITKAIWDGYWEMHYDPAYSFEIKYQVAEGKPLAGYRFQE

TsRTA [2] = target: T1, TsRTA; assay: acetophenone formation, plate reader; substrate-inhibition fit; assay type: biochemical; details: 30 °C, pH 8
Description: (§1) acetophenone formation, plate reader; substrate-inhibition fit on TsRTA

AtRTA = target: T2, AtRTA (Aspergillus terreus, UniProt Q0C8G1); assay: as above; assay type: biochemical; details: 30 °C, pH 8
T2 construct: gene ATEG_10023; synthetic gene (Johnson Matthey) in pCH93b (pET22b(+)-derived, TEV site added), E. coli BL21 STAR (DE3), Ni-IMAC
Description: (§2) acetophenone formation, plate reader; substrate-inhibition fit on AtRTA

TsRTA [3] = target: T3, TsRTA (Microascus stellatus, UniProt Z9EHZ8S8K6, G205C); assay: as above; assay type: biochemical; details: 10 mM pyruvate, 1% DMSO, 30 °C, pH 8
T3 construct: codon-optimised synthetic gene in pCH93b (pET22b(+)-derived, TEV site added), E. coli BL21 STAR (DE3), Ni-IMAC, C-terminal His-tag; structure residues 1-319 seen, 320-334 plus tag disordered
T3 sequence (Z9EHZ8S8K6 10-343 G205C): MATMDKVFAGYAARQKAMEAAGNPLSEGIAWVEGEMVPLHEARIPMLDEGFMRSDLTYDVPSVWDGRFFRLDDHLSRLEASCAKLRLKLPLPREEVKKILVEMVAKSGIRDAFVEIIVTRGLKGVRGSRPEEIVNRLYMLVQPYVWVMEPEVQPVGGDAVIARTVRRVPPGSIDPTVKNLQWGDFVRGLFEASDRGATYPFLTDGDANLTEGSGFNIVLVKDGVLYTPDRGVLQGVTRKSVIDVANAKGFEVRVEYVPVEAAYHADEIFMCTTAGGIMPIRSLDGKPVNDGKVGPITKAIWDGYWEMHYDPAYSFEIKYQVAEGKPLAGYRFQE
Description: as §1

[4] = target: (R)-selective transaminase from Thermomyces stellatus (TsRTA), wild type (Thermomyces stellatus); assay: SEC; Superdex 200 10/300 GL; 50 mM potassium phosphate, 100 mM NaCl, 0.1 mM PLP, pH 8; ca 2 mg/mL protein; injected directly after preparation or after incubation (ambient temperature; or 10 mM β-mercaptoethanol at 4°C for 2 days, dialysis, overnight aeration); shares of tetramer, dimer and monomer; 0-1,200 mM NaCl had no effect on the tetramer
C[C@@H](N)c1ccccc1 [5] = assay: acetophenone formation, plate reader; substrate-inhibition fit; assay type: biochemical, Aspergillus terreus; details: 10 mM pyruvate, 1% DMSO, 30 °C, pH 8
Description: as §2

CC(=O)C(=O)O [6] = assay: as above; assay type: biochemical, Aspergillus terreus; details: 2.5 mM RMBA, 0.25% DMSO, 30 °C, pH 8
Description: as §2

Q0C8G1 = details: SEC
[7] = target: AtRTA_G207C (Aspergillus terreus) (UniProt Q0C8G1); assay: SEC
[8] = target: AtRTA_G207C (Aspergillus terreus) (UniProt Q0C8G1)
CC(=O)C(=O)O [9] = assay: acetophenone formation, plate reader; substrate-inhibition fit; assay type: biochemical, Microascus stellatus; details: 2.5 mM RMBA, 0.25% DMSO, 30 °C, pH 8
Description: as §1

C[C@@H](N)c1ccccc1 [10] = assay: as above; assay type: biochemical, Microascus stellatus; details: 10 mM pyruvate, 1% DMSO, 30 °C, pH 8
Description: as §1

CC(=O)C(=O)O [11] = assay: purified protein; details: 2.5 mM RMBA, 0.25% DMSO, 30 °C, pH 8
C[C@@H](N)c1ccccc1 [12] = assay: purified protein; details: 10 mM pyruvate, 1% DMSO, 30 °C, pH 8
[13] = SEC; Superdex 200 10/300 GL; 50 mM potassium phosphate, 100 mM NaCl, 0.1 mM PLP, pH 8; ca 2 mg/mL protein; injected directly after preparation or after incubation (ambient temperature; or 10 mM β-mercaptoethanol at 4°C for 2 days, dialysis, overnight aeration); shares of tetramer, dimer and …
[14] = target: TsRTA_G205C (Thermomyces stellatus); assay: SEC; Superdex 200 10/300 GL; 50 mM potassium phosphate, 100 mM NaCl, 0.1 mM PLP, pH 8; ca 2 mg/mL protein; injected directly after preparation or after incubation (ambient temperature; or 10 mM β-mercaptoethanol at 4°C for 2 days, dialysis, overnight aeration); shares of tetramer, dimer and monomer; 0-1,200 mM NaCl had no effect on the tetramer
[15] = target: the molecule itself; assay: as above

## Cc1ncc(COP(=O)(O)O)c(C=O)c1O [PLP]
TsRTA [1]
  X-ray structure, 2.2 Å: The active site pocket houses a single PLP molecule, covalently bound to each TsRTA chain

## CC(=O)C(=O)O [Pyruvate]
TsRTA [2]; 2.5 mM RMBA, 0.25% DMSO
  Ki: 39 ± 5 mM
AtRTA; 2.5 mM RMBA, 0.25% DMSO
  Ki: 52 ± 4 mM

## C[C@@H](N)c1ccccc1 [RMBA]
TsRTA [2]; 10 mM pyruvate, 1% DMSO
  Ki: 15 ± 1 mM
TsRTA [3]
  Ki: 20 ± 2 mM
AtRTA; 10 mM pyruvate, 1% DMSO
  Ki: 19 ± 1 mM

## (R)-selective transaminase from Thermomyces stellatus (TsRTA), wild type (enzyme)
[4]
  percent dimer: 10%
  percent tetramer: 90%
  stoichiometry N: 4

## AtRTA (Aspergillus terreus NIH2624)
C[C@@H](N)c1ccccc1 [5]
  Km: 170 ± 10 µM
  kcat: 2.24 ± 0.04 s⁻¹
  kcat/Km: 13300 ± 500 M⁻¹ s⁻¹

## AtRTA (Aspergillus terreus NIH2624; G207C)
CC(=O)C(=O)O [6]
  Km: 190 ± 10 µM
  kcat: 1.71 ± 0.03 s⁻¹
  kcat/Km: 9200 ± 500 M⁻¹ s⁻¹
C[C@@H](N)c1ccccc1 [5]
  Km: 300 ± 20 µM
  kcat: 1.96 ± 0.05 s⁻¹
  kcat/Km: 6400 ± 300 M⁻¹ s⁻¹

## AtRTA_G207C
Q0C8G1
  percent tetramer (sample with a lower proportion of tetramer used for the thermostability assay): AtRTA_G207C: 55% tetramer

## AtRTA_G207C (from UniProt Q0C8G1 1-325) (enzyme)
[7]
  percent dimer (after β-mercaptoethanol, dialysis and aeration): 5%
  percent dimer (immediately following purification): 19%
  percent dimer and tetramer (after β-mercaptoethanol pre-treatment): 94%
  percent dimer and tetramer (before β-mercaptoethanol pre-treatment): 57%
  percent monomer (after β-mercaptoethanol, dialysis and aeration): 6%
  percent monomer (immediately following purification): 52%
  percent tetramer (after β-mercaptoethanol, dialysis and aeration): 89%
  percent tetramer (immediately following purification): 28%
  stoichiometry N: 4
[8]
  increase in enzyme activity after β-mercaptoethanol pre-treatment: 65%

## TsRTA (Microascus stellatus)
CC(=O)C(=O)O [9]
  Km: 570 ± 30 µM
  kcat: 2.21 ± 0.04 s⁻¹
  kcat/Km: 3900 ± 100 M⁻¹ s⁻¹
C[C@@H](N)c1ccccc1 [10]
  Km: 130 ± 10 µM
  kcat: 1.82 ± 0.03 s⁻¹
  kcat/Km: 13800 ± 600 M⁻¹ s⁻¹

## TsRTA (Microascus stellatus; G205C)
CC(=O)C(=O)O [11]
  Km: 420 ± 10 µM
  kcat: 1.33 ± 0.02 s⁻¹
  kcat/Km: 3200 ± 100 M⁻¹ s⁻¹
C[C@@H](N)c1ccccc1 [12]
  Km: 120 ± 10 µM
  kcat: 1.35 ± 0.03 s⁻¹
  kcat/Km: 11000 ± 600 M⁻¹ s⁻¹

## TsRTA_G205C
[13]
  percent tetramer (sample with a lower proportion of tetramer used for the thermostability assay): TsRTA_G205C: 75% tetramer

## TsRTA_G205C (enzyme)
[14]
  percent dimer (after β-mercaptoethanol, dialysis and aeration): 11%
  percent dimer (immediately following purification): 42%
  percent monomer (immediately following purification): 2%
  percent tetramer (after β-mercaptoethanol, dialysis and aeration): 89%
  percent tetramer (immediately following purification): 55%
  stoichiometry N: 4

B1: (R)-selective transaminase from Aspergillus terreus (AtRTA), wild type (enzyme)
chain: MASMDKVFAGYAARQAILESTETTNPFAKGIAWVEGELVPLAEARIPLLDQGFMHSDLTYDVPSVWDGRFFRLDDHITRLEASCTKLRLRLPLPRDQVKQILVEMVAKSGIRDAFVELIVTRGLKGVRGTRPEDIVNNLYMFVQPYVWVMEPDMQRVGGSAVVARTVRRVPPGAIDPTVKNLQWGDLVRGMFEAADRGATYPFLTDGDAHLTEGSGFNIVLVKDGVLYTPDRGVLQGVTRKSVINAAEAFGIEVRVEFVPVELAYRCDEIFMCTTAGGIMPITTLDGMPVNGGQIGPITKKIWDGYWAMHYDAAYSFEIDYNERN
notes: the forward primer holds the ATG; Same vector as TsRTA, whose His-tag is C-terminal; also called omega transaminase from Aspergillus terreus; source: E. coli BL21 STAR (DE3), purified (IMAC)
[15]
  stoichiometry N: 4
